B1: TPR t1 (parent)
chain: GACCAAUCUGCCCUCAGAGCUCGAGAACAUCUUCGGAUGCAGAGGAGGCAGGCUUCGGUGGCGCGAUAGCGCCAACGUCCUCAACCUCCAAUGCAUCCCACCACAUGAUGAUGCCUGAAGAGCCUUGGUUUUUUG

Data on 21 variants can be found in the RNAGym collection of RNA variant scans (doi:10.1073/pnas.2313332121).

The variants in the data set derive from B1. Put plainly: polymerase ribozyme fitness, log enrichment relative to wild type (log ratio); higher = more active; in vitro selection for triplet polymerase activity. The procedure, abridged: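 Mutant libraries for each subunit of a heterodimeric triplet polymerase ribozyme were made by PCR and then transcribed. Each library underwent one round of in vitro selection in triplicate: annealing with a biotinylated primer, the partner subunit and triplets, frozen incubation at −7 °C, gel excision of extended constructs, streptavidin-bead capture and RT-PCR. Input and output libraries were Illumina-sequenced, and only genotypes with ≥10 input reads and ≥1 read per output were kept. Fitness is the logarithm, base 2, of genotype enrichment over wild-type enrichment, computed from inverse-variance-weighted replicate averages.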
On to GACCAAUCUGCCCUCAGAGCUCGAGAACUUCUUCGGAUGCAGAGGAGGAAGGCUUCGGUGGCGUGAUAGCGCCAACGUCCUAAACCUCCAAUGCAUGCCACCACAUGAUGAUGCCUGAAGGGCCUUGGUUUUCUG, for which the “polymerase ribozyme fitness (log ratio)” value is -3.41. As for GACCAAUCUGCCCUCAGAGCUCGAGAACUUCUUCGGAUGCAGAGGAGGCAGGCUUCGGUGGCGCGAUAGCGCCAACGUCCUCAGCCGCCAAUGCAUCCCACCACAUGAUGAUGCCUGAAGAGCCUUGGUUUUUUG, the “polymerase ribozyme fitness (log ratio)” value is -2.37. With GACCAAUCUGCCCUCAGAGCUCGAGAACUUCUUCGGAUGCAGAGGAGGCAGGCUUCGGUGGCGCGAUAGCGCCCACGUCCUCAACCUCCAAUGCAUCCCACCACAUGAUGAUGCCUGAAGAGCCUUGGUUUUUUG, the “polymerase ribozyme fitness (log ratio)” value is -1.73.

On to GACCAAUCUGCCCUCAGAGCUCGAGAACUUCUUCGGAUGCAGAGGGGGCAGGCUUCGGUUGCGCGAUAGCGCCAACGUCCUCAACCUCCACUGCAUCCCACCACAUGAUGAUGCCUGAAGAGCCUUGGUUUUUUG, for which the “polymerase ribozyme fitness (log ratio)” value is -2.59. Take GACCAAUCUGCCCUCAGAGCUCGAGAACUUCUUCGGAUGCAGAGGAGGCAGGCUUAGGUGGCGCGAUAGCGCCAACGUCCUCAACCUCCAAUGCAUCCCACCACAUGAUGAUGCCUGAAGAGCCUUGGUUUUUUG: the “polymerase ribozyme fitness (log ratio)” value is -2.25. GACCAAUCUGCCCUCAGAGCUCGAGAACUUCUUCGGAUGCAGAGGAGGCAGGCUUUGGUGGCGCGAUAGCGCCAACGUCCUCAACCUCCAAUGCAUCCCACCACAUGAUGAUGCCUGAAGAGCCUUGGUUUUUUG: the “polymerase ribozyme fitness (log ratio)” value was -1.54. With GACCAAUCUGCCCUCAGAGCUCGAGAACGUCUUCGGAUGCAGAGGAGGCAGGCUUCGGUGGCGCGAUAGCGCCAACGUCCUCAACCUCCAAAGCAUCCCACCACAUGAUGAUGCCUGAAGAGCCUUGGUUUUUUG, the “polymerase ribozyme fitness (log ratio)” value was -3.71. For GACCAAUCUGCCCUCAGAGCUCGAGAACUUGUUCGGAUGCAGAGGAGGCAGGCUUCGGUGGCGCGAUAGCGCCAACGUCCUCAACCUCCAAUGCAUGCCACCACAUGAUGAAGCCUGAAGAGCCUUGGGUUUUUG, the “polymerase ribozyme fitness (log ratio)” value was -6.42. As to GACCAAUCUGCCCUCAGAGCUCGAGAACUUCUUCGGAUGUAGAGGAGGCAGGCUUCGGUGGCGCGAUAGCGGCAACGUCCUCACCCUCCAAUGCAUCCCCCCACAAGAUGAUGCCUGAUGAGCCUUGGUUUUUUG, the “polymerase ribozyme fitness (log ratio)” value was -3.21. On to GACCAAUCUGCCCUCAGAGCUCGAGAACUUCUUCGGAUGGAGAGGAGGCAGCCUUCGGUGGCGCGAUACCGCCAACGUCCUCAACCUCCAAUGCAUCCCACCACAUGAUGAUGCCUGAAGGGCCUUGGUUUCUUG, for which the “polymerase ribozyme fitness (log ratio)” value was -2.06. Consider GACCAAUCUGCCCUCAGAGCUCGAGAACUUGUUGGGAUGCAGAAGAGGCAGGCUUCGGUAGCGCGAUAGCGCCAACGUCCUCAACCUCCAAUGCAUCCCACCACAUGAUGAUGUCUGAAGAGCCUUGGUUUUUUG, for which the “polymerase ribozyme fitness (log ratio)” value is -6.84. Under GACCAAUCUGCCCUCAGAGCUCGAGAACUUCUUUGGAUGCAGAGGAGGCAGGCUUCGGUGGCGCGAUAGCGCCAACGUCCUCAACCUCCAAUGCAUCCCACCACAUGAUGAUGCCUGAAGAGCCUUGGUUUUUUG stands -4.41; under GACCAAUCUGCCCUCAGAGCUCGAGAACUUCUUCGGAUGCAGAGGAGGCAGGCUUCGGUGGAGCGAUAGCGCCAACGUCCUCAACCUCCAAUGCAUCCCACCACAUGAUGACGCCUGAAGAGCCUUCGUUUUUUG, -3.28; under GACCAAUCUGCCCUCAGAGCUCGAGAACUUCUUCGGAUGCAGAGGAGGCAGGCUUUGGUGGCGCGAUAGCGCCAACGUCCUCAACCUCCAAUGCAUCCCACCACAUGAUGAUGCCUGAACAGCCUUAGUUUUUUG, -2.48. For GACCAAUCUGCCCUCAGAGCUCGAGAACUUCUUCGGAUGUAGAGGAGGAAGGCUUCGGUGGCGCGAUAGCGCCAACGUCCUCAACCUCCAAUGCAUCCCACCACAAGAUGAUGCCUGAAGAGCCUUGGUUUUUUG the value was -1.76. For GACCAAUCUGCCCUCAGAGCUCGAGAACUUCUUCGGUUGCAGAGGAGGCAGGCUUCGGUUGCGCGAUAGCGCCAACGUCCUCAACCUCUAAUGCAUCCCACCACAUGAUGAUGCCUGAAGAGCCUUGGUUUUUUG the value was -3.5; for GACCAAUCUGCCCUCAGAGCUCGAGAACUUAUUCGGAUGCAGAGGAGGCAGGCUUCGGUGGCGCGAUAACGCCAACGUCCUCAACCUCCAAUGCAUCCCACCAGAUGAUGAUGCCUCAAGUGCCUUGGUUUUUUG, -7.2; for GACCAAUCUGCCCUCAGAGCUCGAGAACGUCUUCGGAUGCAGAGGAGGCAGGCUUCGGUGGCGCGAUAGCGCCAACGUCCUCAACCUCCAAUGCAUCCCACCACAUGAGGAUGGCUGAAGAGCCUUGGUUUUUUG, -6.5.

Take GACCAAUCUGCCCUCAGAGCUCGAGAACUUCUUCGGAUGCAGAGGAGGCAGGCUUCGGUGGCGCGAUAGCGCGAACGUCCUCAACCUCCAAUGCAUCCCACCACAUGAUGAUGCCUGAAGAGCCUUGGUUUUUUG: the “polymerase ribozyme fitness (log ratio)” value was -1.92. For GACCAAUCUGCCCUCAGAGCUCGAGAACUUCUUUGGAUGCAGAGGAUGCAGGUUUCGGUGGCGCGAUAGCGCCAACGUCCUCAACCUCCAAUGCAUCCCACCACAUGAUGAUGCCUGAAGAGCCUUGGUUUUUUG the value was -6.51.

Consider GACCAAUCUGCCCUCAGAGCUCGAGAACUUCUUCGGAUGCAGAGGAGGCAGGCUUCGGUGGCGCGAUAGCGUCAACGUCCUCAACCUCCAACGCAUCCCACCACAUGAUGAUGCCUGAAGAGCCUUGGUUUUUUG, for which the “polymerase ribozyme fitness (log ratio)” value is -2.98.
